One may read the Kd as the free concentration of one partner at which half of the binding sites on the other are occupied at equilibrium, for simple one-to-one binding. Read a high Kd as weaker binding. Usually koff stands for the first-order rate constant of dissociation. Low values mean a long-lived complex, high ones a short-lived complex. Broadly, the kon is the second-order rate constant of association. High values mean fast association, low ones slow association.

Numbering of substitutions follows the chain as printed.

From patent US20260098095A1 (Hoffmann-La Roche, published 2026) come the findings set out here.

The target in assay [1] is T1, HLA-A2/MAGE-A4 peptide MHC (pMHC) complex on cells (human). In words: cell-based or functional assay.
Assay [2] deals with T2, HLA-A2/MAGE-A4p230-239 complex (human).
T2 construct: also called HLA-A2/MAGEp230-239
In words: SPR Biacore T200, antibody captured by anti-human Fc, pMHC complex as analyte, 25 C, 1:1 Langmuir fit. On the technique in general: In SPR one partner is held on a chip, and binding of the other changes the refractive index at the surface.
Method: The dissociation phase was monitored for 240 s and triggered by switching from the sample solution to HBS-EP+. The chip surface was regenerated after every cycle using an injection of 3M MgCl₂ at 10 μl/min for 30 sec. Bulk refractive index differences were corrected for by subtracting the response obtained on the reference flow cell which contains the anti-human Fc antibody, but without HLA-A2/MAGE-A4 antibody captured on it. The affinity constants were derived from the kinetic rate constants by fitting to a 1:1 Langmuir binding using the BIAeval software (GE Healthcare). The measurement was performed in triplicate with independent dilution series.

The target in assay [3] is T1, HLA-A2/MAGE-A4 peptide MHC (pMHC) …. In words: cell-based or functional assay. The source holds these as a separate data set.

B1: Molecule L (antibody, V domains shown)
VH: not shown
VL: SSELTQDPAVSVALGQTVRITCQGDSLRSYYASWYQQKPGQAPVLVIYGKNNRPSGIPDRFSGSSSGNTASLTITGAQAEDEADYYCNSRQSSYYHHIVFGGGTKLTVL
notes: also called 032G09 IgG antibody
Turning to B1, the “EC50 (pM), activation of PGLALA-CAR-J cells in presence of MAGE-A4 peptide pulsed T2 cells” value (from here on “EC50 (pM), activation”) in assay [1] was found to be 83.7 pM. In assay [2], this molecule registered a Kd of 25.1 nM, a koff of 0.003 s⁻¹ and a kon of 120000 M⁻¹ s⁻¹.

B2: Molecule M (antibody, V domains shown)
VH: not shown
VL: B1 VL with G67S, Q91M, Y94R, I98D
notes: also called 034F05 IgG antibody
On to B2, for which, in assay [1], the “EC50 (pM), activation” value was determined as 19.2 pM. In assay [2], this molecule returned a Kd of 2.47 nM, a koff of 0.00111 s⁻¹ and a kon of 450000 M⁻¹ s⁻¹.

B3: Molecule H (antibody, V domains shown)
VH: YVQLVESGGGLVKPGGSLRLSCAAPLPFTGLDMSWVRQAPGKGLEWVGSISPKGGSTYYNDNVLGRFTISRDNSKNTLYLQMNSLRAEDTAVYYCARDWGFFDLWGQGTLVTVSS
VL: AIQMTQSPSSLSASVGDRVTITCRASQSISNYLAWYQQKPGKAPKLLIYDANAHENDVPSRFSGSGSGTDFTLTISSLQPEDFATYYCQQYSSHPYTFGQGTKLEIK
notes: also called 007A09 IgG antibody
For B3, in assay [1], the “EC50 (pM), activation” value stood at 8.6 pM. Also, in assay [2], binding was characterised by a dissociation constant (Kd) of 17.3 nM, the koff worked out at 0.00426 s⁻¹ and the kon turned out to be 247000 M⁻¹ s⁻¹.

B4: Molecule K (antibody, V domains shown)
VH: AQLVESGGGLVQPGGSLRLSCAASAYFSFKAMSWVRQAPGKGLEWVGSISPSGGSTYYNDNVLGRFTISRDNSKNTLYLQMNSLRAEDTAVYYCAKDVGFFDEWGQGTLVTVSS
VL: B3 VL with A1D, N31S, N52S, A53I, H54R, E55D, N56I, D57G, H94Y
notes: also called 057D03 IgG antibody
Regarding B4, the “EC50 (pM), activation” value in assay [1] came out at 18.2 pM. In assay [2], this molecule showed a dissociation constant Kd of 15.7 nM, a koff of 0.0408 s⁻¹ and a kon of 2.6e+06 M⁻¹ s⁻¹.

B5: Molecule J (antibody, V domains shown)
VH: TQQLVESGGGLVQPGGSLRLSCAASGFSFSFDTMSWVRQAPGKGLEWVGSISPSGGSTYYNDNVLGRFTISRDNSKNTLYLQMNSLRAEDTAVYYCARDHGYFDMWGQGTLVTVSS
VL: B3 VL with A1D, N31S, N52S, A53W, H54L, N56L, D57G, H94Y
notes: also called 057B04 IgG antibody
As for B5, the “EC50 (pM), activation” value in assay [1] stood at 208 pM. Also, in assay [2], binding was characterised by a dissociation constant (Kd) of 40.7 nM, the koff is 0.043 s⁻¹ and the kon stood at 1.06e+06 M⁻¹ s⁻¹.

B6: Molecule I (antibody, V domains shown)
VH: B3 VH with V2P, P25R, L26Y, G30R, L104N
VL: B3 VL with D50N, N52S, A53H, H54P, N56Y
notes: also called 007D10 IgG antibody
Regarding B6, the “EC50 (pM), activation” value in assay [1] is 182 pM. In assay [2], this molecule had a Kd of 96.4 nM, a koff of 0.00246 s⁻¹ and a kon of 25500 M⁻¹ s⁻¹.

B7: Molecule U (bispecific antibody, V domains shown)
VH 1: QVQLQQSGGEVMKPGASVKLSCKATGYTFTGYWIEWIKQRPGHGLEWIGEILPGSGGTNYNEKFKGKATFTAHTSSNTAYMQLSSLTTEDSAIYYCARDSNSFTYWGQGTLVTVSS
VL 1: QIVLTQSPAIMSASPGEKVTITCSVSSSVDYIHWFQQKPGTSPKFWIYSTSILASGVPARFSGSGSGTSYSLTISRMEAEDAATYYCQQRSSYPPTFGSGTKLEIK
VH 2: EVQLVESGGGLVQPGGSLRLSCAASGYSFTGYTMNWVRQAPGKGLEWVALINPYKGVSTYNQKFKDRFTISVDKSKNTAYLQMNSLRAEDTAVYYCARSGYYGDSDWYFDVWGQGTLVTVSS
VL 2: DIQMTQSPSSLSASVGDRVTITCRASQDIRNYLNWYQQKPGKAPKLLIYYTSRLESGVPSRFSGSGSGTDYTLTISSLQPEDFATYYCQQGNTLPWTFGQGTKVEIK
For B7, in assay [3], the “EC50 (nM), T-cell mediated lysis of A375 cells, 48 h” value is 1.96 nM; the “EC50 (nM), T-cell mediated lysis of NCI-H2023 cells, 48 h” value was 1.12 nM; the “EC50 (nM), T-cell mediated lysis of UMUC-3 cells, 48 h” value was 0.45 nM.

B8: Molecule N (antibody, V domains shown)
VH: B7 VH 1
VL: B7 VL 1
For B8, the “EC50 (pM), activation” value in assay [1] turned out to be 19.2 pM.
